B1: soluble alkaline phosphatase-FLRT3 ectodomain fusion protein (AP-FLRT3ΔTM) (domain or fragment, Xenopus, UniProt Q70AK3 29-527, looked up)
chain: KPCPSVCRCDAGFIYCNDRDLTSIPSGIPDDATTLYLQNNQINNAGIPSDLKGLDKVERIYLYRNSLDEFPINLPKNVKELHLQENNIRTITYDALLQIPFIEELHLDDNSVSAVSIEDGAFRDNIFLRLLFLSRNHLSTIPWGLPKTIEELRLDDNRISTISEISLQDLTNLKRLVLDGNLLNNNGLGERVFMNLINLTELSLVRNSLTSPPANLPGTSLRKLYLQENHMNYVPPNSFADLTQLYRLDMSNNNLTALPQGIFDDLDNLTQLFLRNNPWYCGCKMKWVRDWLQSLPSKVNVRGLMCQAPERVRGMTIKDLNKELFDCKDRIGSNTIHVTTTMLNSLLPAQGQWPVPVTKQPEIRPPDINKIFRTTPIPVKKIITIQVKSITTETIYISWKVALPMTALRLSWQLGHSPVFGSITETIVTGDRAEYLLTALEPESPYRICMVPMETGNIYLSDETPVCIETETAPLKMYNPTTTLNREQEKEPYKNSSLP
notes: FLRT3, Xenopus, ectodomain (ΔTM); also called AP-tagged FLRT3ΔTM; source: conditioned medium, concentrated
B2: Unc5D (splice variant of the mouse Unc5D gene) (receptor)
chain: ARGADGSEILPDSIPSAPGTLPHFIEEPEDAYIIKSNPIALRCKARPAMQIFFKCNGEWVHQNEHVSEESLDESSGLKVREVFINVTRQQVEDFHGPEDYWCQCVAWSHLGTSKSRKASVRIAYLRKNFEQDPQGREVPIEGMIVLHCRPPEGVPAAEVEWLKNEEPIDSEQDENIDTRADHNLIIRQARLSDSGNYTCMAANIVAKRRSLSATVVVYVNGGWSSWTEWSACNVRCGRGWQKRSRTCTNPAPLNGGAFCEGMSVQKITCTALCPVDGSWEVWSEWSVCSPECEHLRIRECTAPPPRNGGKFCEGLSQESENCTDGLCILDKKPLHEIKPQSIENASDIALYSGLGAAVVAVAVLVIGVTLYRRSHSDYGVDVIDSSALTGNSLLLNPAMQPDLTVSRTYSGPICLQDPLDKELMTESSLFNPLSDIKVKVQSSFMVSLGVSERAEYHGKNHSGTFPHGNNRGFSTIHPRNKTPYIQNLSSLPTRTELRTTGVFGHLGGRLVMPNTGVSLLIPHGAIPEENSWEIYMSINQGEPSLQSDGSEVLLSPEVTCGPPDMLVTTPFALTIPHCADVSSEHWNIHLKKRTQQGKWEEVMSVEDESTSCYCLLDPFACHVLLDSFGTYALTGEPITDCAVKQLKVAVFGCMSCNSLDYNLRVYCVDNTPCAFQEVISDERHQGGQLLEEPKLLHFKGNTFSLQVSVLDIPPFLWRIKPFTACQEVPFSRVWSSNRQPLHCAFSLERYTPTTTQLSCKICIRQLKGHEQILQVQTSILESERETITFFAQEDSTFPAQTGPKAFKIPYSIRQRICATFDTPNAKGKDWQMLAQKNSINRNLSYFATQSSPSAVILNLWEARHQQDGDLDSLACALEEIGRTHTKLSNITEPQIDDADFNYSRQNGL

One experiment deals with T1, Xenopus Unc5B (Xenopus, UniProt Q8JGT4 31-943).
T1 construct: Netrin receptor Unc5B, Xenopus; Constructs are in Text S1; source: HEK293T, transfected, on cells
Nature of the experiment: equilibrium binding of an alkaline phosphatase fusion protein to transfected cells, binding curves and Scatchard analysis; different amounts of concentrated AP-FLRT3ΔTM conditioned medium on transfected cells, 1 h at RT; washed with PBS containing 0.2 M NaCl; cells lysed; AP activity read at 405 nm, normalised to cell number. Conditions: partners not purified.

The target in experiment [1] is B1. The description is as above. Conditions: partners not purified.

The results in this text go back to paper PMC2683942, “Unc5B Interacts with FLRT3 and Rnd1 to Modulate Cell Adhesion in Xenopus Embryos” (PLoS ONE, 2009).

One may read the Kd as the equilibrium constant for the complex coming apart. A low value points to higher affinity.

T1 sequence (Q8JGT4 31-943): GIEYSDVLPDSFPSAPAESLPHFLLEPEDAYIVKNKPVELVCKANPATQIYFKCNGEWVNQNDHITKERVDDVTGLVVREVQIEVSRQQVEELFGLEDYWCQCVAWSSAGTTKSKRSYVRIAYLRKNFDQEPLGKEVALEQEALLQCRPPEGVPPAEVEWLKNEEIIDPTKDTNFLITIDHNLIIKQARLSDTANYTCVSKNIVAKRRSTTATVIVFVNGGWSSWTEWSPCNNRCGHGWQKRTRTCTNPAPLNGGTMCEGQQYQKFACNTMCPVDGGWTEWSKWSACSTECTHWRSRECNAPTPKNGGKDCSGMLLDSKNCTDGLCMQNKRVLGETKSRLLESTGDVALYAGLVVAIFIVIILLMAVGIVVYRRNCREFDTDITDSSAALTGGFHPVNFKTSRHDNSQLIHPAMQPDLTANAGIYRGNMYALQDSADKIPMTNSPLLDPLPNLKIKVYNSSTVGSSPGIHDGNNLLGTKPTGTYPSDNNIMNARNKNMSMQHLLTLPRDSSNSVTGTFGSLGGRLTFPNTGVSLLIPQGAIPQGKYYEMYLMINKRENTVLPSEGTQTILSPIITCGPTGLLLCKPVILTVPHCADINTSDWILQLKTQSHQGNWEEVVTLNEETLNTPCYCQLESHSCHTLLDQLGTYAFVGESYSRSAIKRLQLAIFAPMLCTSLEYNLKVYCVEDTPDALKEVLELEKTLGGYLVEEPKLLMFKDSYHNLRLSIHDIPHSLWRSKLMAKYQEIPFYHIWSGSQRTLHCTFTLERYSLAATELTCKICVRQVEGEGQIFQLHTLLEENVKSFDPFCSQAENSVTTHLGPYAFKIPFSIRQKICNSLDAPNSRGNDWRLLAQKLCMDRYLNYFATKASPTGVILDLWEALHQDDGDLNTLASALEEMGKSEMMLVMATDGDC

On to B1, for which binding in the experiment with Xenopus Unc5B was characterised by a dissociation constant (Kd) of 50 nM. This counts as double-digit nanomolar. As for B2, in experiment [1], binding was put at a Kd of 26 nM.
